Test results published in publication PMC6539025, “P-element Somatic Inhibitor Protein Binding a Target Sequence in dsx Pre-mRNA Conserved in Bombyx mori and Spodoptera litura”.

How the values were obtained:
SlPSI L127G = SlPSI L127G (Spodoptera litura, UniProt A0A9J7DW37 1-732, L127G); experiment: competition; unlabeled CE1 against biotin-CE1; RNA dissolved in protein purification buffer, 20 mM Tris, 20 mM NaCl (pH not given); ITC at 25 C; EMSA buffer not given; settings: protein: recombinant; tags: N-terminal His6-MBP-TEV
MBP-BmPSI = MBP-BmPSI (Bombyx mori, UniProt A8R081 1-703); experiment: ITC; 25 C; n = 1.02; RNA dissolved in protein purification buffer, 20 mM Tris, 20 mM NaCl (pH not given); ITC at 25 C; EMSA buffer not given; settings: protein: recombinant; tags: N-terminal His6-MBP-TEV
MBP-BmPSI, sequence (A8R081 entry or part of it): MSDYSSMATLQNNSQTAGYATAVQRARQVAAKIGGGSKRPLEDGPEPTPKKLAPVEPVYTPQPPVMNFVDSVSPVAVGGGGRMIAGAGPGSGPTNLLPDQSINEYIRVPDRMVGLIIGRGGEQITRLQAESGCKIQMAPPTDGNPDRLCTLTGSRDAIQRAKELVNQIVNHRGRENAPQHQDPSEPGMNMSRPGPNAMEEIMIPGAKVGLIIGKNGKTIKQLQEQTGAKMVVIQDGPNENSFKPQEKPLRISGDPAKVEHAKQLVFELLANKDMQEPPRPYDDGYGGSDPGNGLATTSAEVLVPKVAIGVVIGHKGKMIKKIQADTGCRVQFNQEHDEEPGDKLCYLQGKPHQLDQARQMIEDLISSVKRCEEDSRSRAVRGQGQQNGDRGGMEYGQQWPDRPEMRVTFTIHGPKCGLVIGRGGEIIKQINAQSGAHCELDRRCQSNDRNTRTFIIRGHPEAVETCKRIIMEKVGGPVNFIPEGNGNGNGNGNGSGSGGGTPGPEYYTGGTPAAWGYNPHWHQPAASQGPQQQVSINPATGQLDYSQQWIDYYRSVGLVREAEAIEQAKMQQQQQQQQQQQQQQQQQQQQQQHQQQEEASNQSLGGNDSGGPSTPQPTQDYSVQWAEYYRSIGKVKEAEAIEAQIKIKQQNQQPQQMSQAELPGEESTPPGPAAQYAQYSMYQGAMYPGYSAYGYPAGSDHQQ

SlPSI L127G, sequence (A0A9J7DW37 entry or part of it L127G | L127G L127G): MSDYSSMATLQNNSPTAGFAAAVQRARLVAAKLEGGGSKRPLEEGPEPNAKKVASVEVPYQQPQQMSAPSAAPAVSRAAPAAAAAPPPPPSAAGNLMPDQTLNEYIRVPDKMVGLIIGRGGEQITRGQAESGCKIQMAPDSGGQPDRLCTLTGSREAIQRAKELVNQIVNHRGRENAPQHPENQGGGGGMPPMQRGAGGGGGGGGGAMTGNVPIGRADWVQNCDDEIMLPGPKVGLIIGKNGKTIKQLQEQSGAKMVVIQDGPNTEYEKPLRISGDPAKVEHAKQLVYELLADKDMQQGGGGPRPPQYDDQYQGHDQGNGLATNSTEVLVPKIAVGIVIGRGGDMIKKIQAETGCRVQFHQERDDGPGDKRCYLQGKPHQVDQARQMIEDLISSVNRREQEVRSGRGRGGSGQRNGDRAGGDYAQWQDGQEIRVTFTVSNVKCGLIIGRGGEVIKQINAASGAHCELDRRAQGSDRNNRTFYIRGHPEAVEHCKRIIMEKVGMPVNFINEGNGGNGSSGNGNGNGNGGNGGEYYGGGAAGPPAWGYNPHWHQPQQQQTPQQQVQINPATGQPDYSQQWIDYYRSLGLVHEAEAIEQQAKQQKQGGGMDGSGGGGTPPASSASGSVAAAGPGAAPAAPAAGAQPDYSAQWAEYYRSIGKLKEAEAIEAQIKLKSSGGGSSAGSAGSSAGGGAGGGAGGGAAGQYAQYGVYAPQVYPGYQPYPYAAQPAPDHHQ

B1: CE1 RNA, unlabeled (ssRNA)
RNA: UUAAUAAUAUAAGUGGUGUA
With B1 the binding result (SlPSI L127G) was “binds” and the Ka (MBP-BmPSI) was 1.74e+07 M⁻¹.
